Patent publication US20170037149A1 (Amgen, published 2017)

These binders were tested against T1, human FLT3 (human, UniProt P36888 27-993) (assay: FACS, scFv on CHO-human FLT3 pre-incubated with FLT3 ligand (competitor)).
T1 construct: On transfected CHO cells, or on the FLT3 positive human AML cell lines EOL-1 / MV4-11 where the row says so; also called hu FLT3; full length human FLT3
Procedure: The detection was performed using mouse anti-FLAG+PE-conjugated goat anti-mouse and the Fluorescence median detected by FACS (median (+ligand)/median (w/o ligand)*100%)
Afterwards cells were not washed but directly stained with FLT3 binder (scFv's). […] As negative control, cells were incubated with an unspecific scFv instead of FLT3 scFv.
For the evaluation of the data, the fluorescence median was detected by FACS.

Binder	median [+ligand]/median [w/o ligand]*100 [%]
FL-15 scFv (scFv, periplasmic prep) scFv: QVTLKESGPALVKPTETLTLTCTLSGFSLNNARMAVSWIRQPPGKTLEWLAHIFSNDEKSYSTSLKSRLTISKDTSKGQVVLTMTNMDPVDTATYYCARIVGYGSGWYGYFDYWGQGTLVTVSSGGGGSGGGGSGGGGSDIQMTQSPSSLSASVGDRVTITCRASQDIGNDLGWYQQKPGKAPKRLIYAASSLQSGVPSRFSGSGSGTEFTLTISSLQPEDFATYYCLQHNSYPLTFGGGTKVEIK	≥ 75
FL-16 scFv (scFv, periplasmic prep) scFv: QVTLKESGPVLVKPTETLTLTCTVSGFSLRNARMAVSWIRQPPGKTLEWLAHIFSNDEKSYSTSLKSRLTISKDTSKSQVVLTMTNMDPVDTATYYCARIVGYGSGWYGYFDYWGQGTLVTVSSGGGGSGGGGSGGGGSDIQMTQSPSSVSASVGDRVTITCRASQDIRYDLAWYQQKPGKAPKRLIYAASSLQSGVPSRFSGSGSGTEFTLTISSLQPEDFATYYCLQHNFYPLTFGGGTKVEIK	≥ 75
FL-20 scFv (scFv, periplasmic prep) scFv: QVTLKESGPALVKPTETLTLTCTLSGFSLNNARMAVSWIRQPPGKTLEWLAHIFSNDEKSYSTSLKSRLTISKDTSKSQVVLTMTNMDPEDTATYYCARIVGYGTGWYGFFDYWGQGILVTVSSGGGGSGGGGSGGGGSDIQMTQSPSSLSASVGDRVTITCRASQGIRNDLAWYQQKPGKAPKRLIYAASSLQSGVPSRFSGSGSGTEFTLTISSLQPEDFATYYCLQHNSYPLTFGGGTKVEIK	≥ 75
FL-29 scFv (scFv, periplasmic prep) scFv: QVTLKESGPALVKPTQTLTLTCTFSGFSLSNARMGVSWIRQPPGKALEWLAHIFSNDEKSYRTSLKSRLTISKDTSKSQVVLTMTNMDPVDTATYYCARIVGYGSGWYAYFDYWGQGTLVTVSSGGGGSGGGGSGGGGSDIQMTQSPSSLSASVGDRVTITCRASQGIRNDLGWYQQKPGKAPKRLIYAASSLQSGVPSRFSGSGSGTEFTLTISSLQPEDFATYYCLQHNSYPLTFGGGTKVEIK	≥ 75
FL-32 scFv (scFv, periplasmic prep) scFv: QVTLKESGPTLVKPTETLTLTCTVSGFSFRNARMGVSWIRQPPGKALEWLAHIFSNDEKSYSTSLKSRLTISKDTSKGQVVLTMTNMDPVDTATYYCARIVGYGSGWYGYFDYWGQGTLVTVSSGGGGSGGGGSGGGGSDIQMTQSPSSLSASVGDRVTITCRASQGIRNDLVWYQQKPGKAPKRLIYAASTLQSGVPSRFSGSGSGTEFILTISSLQPEDFATYFCLQHYSYPLTFGGGTKLEIK	≥ 75
FL-33 scFv (scFv, periplasmic prep) scFv: QVTLKESGPVLVKPTETLTLTCTVSGFSLRNARMGVSWIRQPPGKTLEWLAHIFSNDEKSYSTSLKSRLTISKDTSKGQVVLTMTNMDPVDTATYYCARIVGYGSGWYGYFDYWGQGTLVTVSSGGGGSGGGGSGGGGSDIQMTQSPSSLSASVGDRVTITCRASQGIGDDLGWYQQIPGKAPKRLIYATSVLQSGVPSRFSGSGSGTEFTLTISSLQPEDFATYYCLQHNSYPLTFGGGTKLEIK	≥ 75
FL-39 scFv (scFv, periplasmic prep) scFv: QVTLKESGPTLVKPTETLTLTCTLSGFSLNNARMGVSWIRQPPGKCLEWLAHIFSNDEKSYSTSLKNRLTISKDSSKTQVVLTMTNVDPVDTATYYCARIVGYGSGWYGFFDYWGQGTLVTVSSGGGGSGGGGSGGGGSDIQMTQSPSSLSASVGDRVTITCRASQGIRNDLGWYQQKPGKAPKRLIYAASTLQSGVPSRFSGSGSGTEFTLTISSLQPEDFATYYCLQHNSYPLTFGCGTKVEIK	≥ 75
FL-42 scFv (scFv, periplasmic prep) scFv: QVTLKESGPALVKPTETLTLTCTLSGFSLNNARMAVSWIRQPPGKCLEWLAHIFSNDEKSYSTSLKSRLTISKDTSKSQVVLTMTNMDPEDTATYYCARIVGYGTGWYGFFDYWGQGILVTVSSGGGGSGGGGSGGGGSDIQMTQSPSSLSASVGDRVTITCRASQGIRNDLAWYQQKPGKAPKRLIYAASSLQSGVPSRFSGSGSGTEFTLTISSLQPEDFATYYCLQHNSYPLTFGCGTKVEIK	≥ 75
FL-45 scFv (scFv, periplasmic prep) scFv: QVTLKESGPALVKPTQTLTLTCTFSGFSLSNARMGVSWIRQPPGKCLEWLAHIFSNDEKSYRTSLKSRLTISKDTSKSQVVLTMTNMDPVDTATYYCARIVGYGSGWYAYFDYWGQGTLVTVSSGGGGSGGGGSGGGGSDIQMTQSPSSLSASVGDRVTITCRASQGIRNDLGWYQQKPGKAPKRLIYAASSLQSGVPSRFSGSGSGTEFTLTISSLQPEDFATYYCLQHNSYPLTFGCGTKVEIK	≥ 75
FL-46 scFv (scFv, periplasmic prep) scFv: QVTLKESGPVLVKPTQTLTLTCTFSGFSLSNARMGVSWIRQPPGKCLEWLALIYWNDDKRYSPSLKSRLTITKDTSKNQVVLTMTNMDPVDTATYYCARMVGYGSGWYAYFDYWGQGTLVTVSSGGGGSGGGGSGGGGSDIQMTQSPSSLSASVGDRVTITCRASQGIRNDLGWYQQKPGKAPKRLIYAASSLQSGVPSRFSGSGSGTEFTLTISSLQPEDFATYYCLQHNSYPLTFGCGTKVEIK	≥ 75
FL-47 scFv (scFv, periplasmic prep) scFv: QVTLKESGPALVKPTQTLTLTCTFSGFSLSNARMGVSWIRQPPGKCLEWLAHIFSNDEKSYSTSLKSRLTISKDTSKSQVVLTMTDMDPEDTATYYCARIVGYGTGWYGFFDYWGQGILVTVSSGGGGSGGGGSGGGGSDIQMTQSPSSLSASVGDRVTITCRTSQGIRNDLGWYQQKPGKAPKRLIYAASSLQSGVPSRFSGSGSGTEFTLTISSLQPEDFATYYCLQHNSYPLTFGCGTKVEIK	≥ 75
FL-5 scFv (scFv, periplasmic prep) scFv: QVTLKESGPMLVKPTETLTLTCTFSGFSLRNARMGVSWIRQPPGKALEWLAHIFWNDEKSYSTSLKSRLTISKDTSKSQVVLTMTNMDPVDTATYYCARIPYYGSGSYNYGMDVWGQGTTVTVSSGGGGSGGGGSGGGGSDIQMTQSPSSLSASVGDRVTITCRASQGIRNDLGWYQQKPGKAPKRLIYAASSLQSGVPSRFSGSGSGTEFTLTISSLQPEDFATYYCLQHNTYPLTFGGGTKVDIK	≥ 75
FL-34 scFv (scFv, periplasmic prep) scFv: QVTLKESGPALVKPTETLTLTCTFSGFSLRNARMGVSWIRQPPGKALEWLAHIFWNDEKSYSTSLKSRLTISKDTSKSQVVLTMTNMDPVDTATYYCARIPYYGSGSYNYGMDVWGQGTTVTVSSGGGGSGGGGSGGGGSDIQMTQSPSSLSASVGDRVTITCRASQGIRNDLGWYQQKPGKAPKRLIYAASSLQSGVPSRFSGSGSGTEFTLTISSLQPEDFATYYCLQHNSYPLTFGGGTKLEIK	≥ 75
FL-48 scFv (scFv, periplasmic prep) scFv: QVTLKESGPMLVKPTETLTLTCTFSGFSLRNARMGVSWIRQPPGKCLEWLAHIFWNDEKSYSTSLKSRLTISKDTSKSQVVLTMTNMDPVDTATYYCARIPYYGSGSYNYGMDVWGQGTTVTVSSGGGGSGGGGSGGGGSDIQMTQSPSSLSASVGDRVTITCRASQGIRNDLGWYQQKPGKAPKRLIYAASSLQSGVPSRFSGSGSGTEFTLTISSLQPEDFATYYCLQHNTYPLTFGCGTKVDIK	≥ 75
FL-49 scFv (scFv, periplasmic prep) scFv: QVTLKESGPTLVKPTETLTLTCTVSGFSLNNARMGVSWIRQPPGKCLEWLAHIFSNDEKSYSTSLKNRLTISKDSSKTQVVLTMTNVDPVDTATYYCARIVGYGTGWFGYFDYWGQGTQVTVSSGGGGSGGGGSGGGGSDIQMTQSPSSLSASVGDRVTITCRASQDIRTDLAWYQQKPGKAPKRLIYAASSLQSGVPSRFSGSGSGTEFTLTISSLQPEDFATYYCLQHNRYPLTFGCGTKVDIK	≥ 75
FL-9 scFv (scFv, periplasmic prep) scFv: QVTLKESGPTLVKPTETLTLTCTVSGFSLSNARMGVSWIRQPPGKALEWLAHIFSNDEKSYSTSLKSRLTISKDTSKSQVVLTMTNMDPVDTATYYCARIPGYGGNFYYHYYGMDVWGQGTTVTVSSGGGGSGGGGSGGGGSDIQMTQSPSSLSASVGDRVTITCRASQGIRNDLAWYQQKPGKAPKRLIYAASTVQSGVPSRFSGSGSGTEFALTISSLQPEDFATYYCLQHNSFPWTFGQGTKVDIK	≥ 75
FL-21 scFv (scFv, periplasmic prep) scFv: QVTLKESGPALVKPTETLTLTCTFSGFSLSNARMGVSWIRQPPGKALEWLAHIFSNDEKSYSTSLKSRLTISKDTSKSQVVLTMTNMDPVDTATYYCARIPGYGGNFYYHYYGMDVWGQGTTVTVSSGGGGSGGGGSGGGGSDIQMTQSPSSLSASVGDRVTITCRTSRGIRNDLGWYQQIPGRAPKRLIYAASTLQSGVPSRFSGSGSGTEFTLTISSLQPEDFATYYCLQHNNFPWTFGQGTKVEIK	≥ 75
FL-50 scFv (scFv, periplasmic prep) scFv: QVTLKESGPTLVKPTETLTLTCTVSGFSLSNARMGVSWIRQPPGKCLEWLAHIFSNDEKSYSTSLKSRLTISKDTSKSQVVLTMTNMDPVDTATYYCARIPGYGGNFYYHYYGMDVWGQGTTVTVSSGGGGSGGGGSGGGGSDIQMTQSPSSLSASVGDRVTITCRASQGIRNDLAWYQQKPGKAPKRLIYAASTVQSGVPSRFSGSGSGTEFALTISSLQPEDFATYYCLQHNSFPWTFGCGTKVDIK	≥ 75
FL-51 scFv (scFv, periplasmic prep) scFv: QVTLKESGPTLVKPTETLTLTCTVSGFSLRNVRMGVSWIRQPPGKCLEWLAHISSNDEKSYSTSLRSRLTISTDTSKSQVVLTMTNMDPVDTATYYCARMPGDSNTWRGFFDYWGQGTLVTVSSGGGGSGGGGSGGGGSEIVMTQSPATLSVSPGERATLSCRTSQSVNNNLAWYQQKPGQAPRLLIYGASTRATGIPARFSGSGSGTEFTLTISSLQPEDFATYYCLQHNSYPLTFGCGTKVEIK	≥ 75
FL-58 scFv (scFv, periplasmic prep) scFv: QVTLKESGPTLVKPTETLTLTCTVSGFSLRNVRMGVSWIRQPPGKALEWLAHISSNDEKSYSTSLRSRLTISTDTSKSQVVLTMTNMDPVDTATYYCARMPGDSNTWRGFFDYWGQGTLVTVSSGGGGSGGGGSGGGGSEIVMTQSPATLSVSPGERATLSCRTSQSVNNNLAWYQQKPGQAPRLLIYGASTRATGIPARFSGSGSGTEFTLTISSLQPEDFATYYCLQHNSYPLTFGGGTKVEIK	≥ 75
